The values that follow come from article PMC1185577 (Nucleic Acids Research, 2005).

The target of this assay is T1, glutathione S-transferase (GST)-L5 (S. cerevisiae, UniProt P26321 1-297).
T1 sequence (looked up): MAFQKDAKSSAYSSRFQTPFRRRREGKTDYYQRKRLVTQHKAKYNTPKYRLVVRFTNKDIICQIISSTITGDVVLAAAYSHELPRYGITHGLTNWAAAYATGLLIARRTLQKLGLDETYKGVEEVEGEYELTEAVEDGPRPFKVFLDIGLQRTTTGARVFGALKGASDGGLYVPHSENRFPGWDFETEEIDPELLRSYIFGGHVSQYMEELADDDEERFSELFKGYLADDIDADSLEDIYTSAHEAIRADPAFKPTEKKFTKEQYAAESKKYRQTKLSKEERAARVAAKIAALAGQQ
Description: pull-down.

B1: maltose-binding protein (MBP)-Rrs1p (natural protein, S. cerevisiae, UniProt Q08746 1-203, looked up)
chain: MSAEDYKNLPVTVEKPIPVVYDLGNLAAFDSNVLDKNDLDSSNARREEKIKSLTRDNVQLLINQLLSLPMKTTTESVGGTGGQSSVMTLLQLPDPTTDLPREKPLPKAKAMTKWEKFAAKKGIKPKERAGKMIYDEASGEWVPKWGYKGANKKLDDQWLVEVDDKVKGTDNELIDPRTLNRAERKRLVKKNEKQQRRNMKNAL
Turning to B1, the binding result was “binds”.
